According to US20230192902A1 (KENJOCKETY BIOTECHNOLOGY, published 2023):

Molecular target: T1, human ABCG2 (human, UniProt Q9UNQ0 1-655)
T1 construct: also called CD388; BCRP
T1 sequence: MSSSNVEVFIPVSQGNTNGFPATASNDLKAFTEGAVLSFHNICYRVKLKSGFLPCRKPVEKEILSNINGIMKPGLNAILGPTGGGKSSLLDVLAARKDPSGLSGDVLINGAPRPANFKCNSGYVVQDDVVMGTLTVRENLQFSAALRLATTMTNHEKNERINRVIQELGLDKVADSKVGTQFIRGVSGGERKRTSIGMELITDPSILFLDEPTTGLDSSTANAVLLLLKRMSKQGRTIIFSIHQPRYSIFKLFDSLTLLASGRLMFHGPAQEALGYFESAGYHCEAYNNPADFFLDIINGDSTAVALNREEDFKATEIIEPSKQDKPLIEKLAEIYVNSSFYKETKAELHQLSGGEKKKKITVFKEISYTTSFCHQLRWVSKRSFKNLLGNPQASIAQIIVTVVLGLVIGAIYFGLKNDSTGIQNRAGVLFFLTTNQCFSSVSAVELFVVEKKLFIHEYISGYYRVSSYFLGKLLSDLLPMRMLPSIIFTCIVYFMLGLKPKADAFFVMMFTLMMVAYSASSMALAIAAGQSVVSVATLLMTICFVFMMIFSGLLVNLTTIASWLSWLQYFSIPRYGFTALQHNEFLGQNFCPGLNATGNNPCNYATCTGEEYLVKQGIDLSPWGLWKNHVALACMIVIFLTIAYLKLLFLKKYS
Assay: flow cytometry on 293T cells stably expressing human ABCG2

binding result: binds
B1: anti-ABCG2 antibody 5D3 (antibody, V domains shown)
VH: QVQLQESGPGLVKPSQSLSLTCTVTGFSITSDYAWNWIRQFPGKKLEWMGYINFDGGTTYNPSLRGRISITRDTSKNQFFLQLRSVTPEDTATYYCATFYGAKGTLDYWGQGTSVTVSS
VL: DIVLTQSPSSFSVSLGDRVTISCKASGYILNRLAWYQQKPGNAPRLLISGATSLETGFPSRFSGTGSGKDYTLSISSLQTEDVGTYYCQQYWSTPWTFGGGTKLEIR
